From the supplement of paper PMC12042874
± gives the uncertainty stated by the source.

experiment: amyloid nucleation score (Sup35N fusion, yeast selection) (log enrichment); library NNK1; higher = more nucleation; inactive = no reads after selection
In short: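 After 24 hours of induction with 100 μM copper sulfate, psi-negative yeast expressing peptides of 20 random codons fused to Sup35N were grown for 7 days at 30°C on medium lacking adenine and uracil. Input and output plasmid inserts were sequenced with Illumina, and sequences with under 100 input reads were discarded. Scores for nucleation are the DiMSum log enrichment of output over input reads, centred on the mode score of non-aggregating sequences.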

Substance | amyloid nucleation score
LFFCGLGERG | inactive
LFFVSRG | -0.465 ± 1.6
LFGDLTNFQTFYT | inactive
LFIVSNFLWLIPKWTNSAKF | -1.66 ± 1.4
LFIYDLQLRHDYHQGYELES | 0.544 ± 0.9
LFKNFEWMYSTMTHLSWIWL | -0.335 ± 0.21
LFKSPWGDDHSIST | 0.434 ± 0.29
LFLFRSH | 5.445 ± 0.048
LFLNMNPVLDTIIPFGWSSV | -0.128 ± 0.56
LFLNTNSRKYTKMDTILILS | -0.359 ± 0.4
LFLSWDSYPSLSKRTV | 0.281 ± 0.42
LFNSYIAVGVKKTSSEVMQR | 0.385 ± 0.55
LFPSTTMLLFRLNQGGFDEI | 0.407 ± 0.58
LFRFDYCLPGRFNRFWPDIS | 1.03 ± 0.18
LFRLYTEITGRMRVTKVKVV | 0.641 ± 0.69
LFRSSKSIRSLLSFCSICMF | 5.33 ± 0.076
LFRYTVRQGWFKRETHWVPM | 0.296 ± 0.53
LFSSLRRGRHSLPIPLPMNL | 0.013 ± 0.36
LFTFIGAVCFILNIACSLFF | 1.05 ± 0.58
LFTVKKVFQLLYL | 0.936 ± 0.7
LFVDPL | 1.06 ± 0.88
LFVFPVESCMCMQLRVAQSK | 0.642 ± 0.62

Substance | amyloid nucleation score
LFWCVSVNRDIKIQCDRTLF | 1.13 ± 0.51
LFWLKKNILLDRIHLP | -0.172 ± 0.4
LFYFTRLFINRYMNM | -0.316 ± 0.5
LGCVVHDCYKVVDGIMSYML | 1.69 ± 0.41
LGECFTGTDRLLEGLVSCES | 0.776 ± 0.88
LGFSVCSRLVFIWEYASFGK | 0.459 ± 0.46
LGFTRIGPGALTAKA | -0.72 ± 1.2
LGFVRLGGSCHITIDSGACV | -0.386 ± 1
LGGAWLSNEDMVGYKNLH | 1.44 ± 0.41
LGHAKRGDWSWLKFSCDSGE | -0.167 ± 0.48
LGIAGER | 0.294 ± 0.33
LGIARDSWGKIKQFSAVDSC | 0.159 ± 0.26
LGLDTEVVGPGPGGYHLWQK | 0.112 ± 0.27
LGLPSVFRRHFAFMVRMLWY | 0.021 ± 0.75
LGNMHREDYGSSGSRARFKG | -0.612 ± 0.74
LGPLYQFDICGKGTGYGDHE | -0.673 ± 0.71
LGRFYTTCT | -0.981 ± 1.1
LGRIDRWKDQWCSLAELKS | -0.383 ± 1.7
LGRLAVDHLVCRRYDSSLHN | 0.089 ± 1.1
LGSEAS | 0.093 ± 0.2
LGTGCA | -0.507 ± 0.83
LGVRINGTNVLDFF | 0.044 ± 0.27

Substance | amyloid nucleation score
LGWNKSTAYELCFTPSSGGY | 2.11 ± 0.15
LGWSGMVGFG | 0.08 ± 0.81
LGYAYSEPPWRLMVNWSPSA | 1.66 ± 0.16
LHCFMWFFHIDN | 7.456 ± 0.057
LHRITYLCSNVYSVCGLVCA | 4.35 ± 0.079
LHSWSVAILIHYKMRD | -0.084 ± 0.27
LHWWRFFVEVTLPCLGFLLS | -0.308 ± 0.76
LIAVQWASMRQAWNIC | 0.616 ± 1.2
LIFLDMAVL | -0.403 ± 1.4
LIFQVSQSIGTYSCTKSEGR | 0.756 ± 0.2
LIHLMRRNAAKTPGAQRDN | 0.947 ± 0.7
LIKSMDFLGRM | 0.117 ± 0.69
LIMILGIRDHLTNCGGKVLQ | 2.03 ± 0.3
LIMNFGGRLRVAGFGVLVMD | 2.09 ± 0.15
LIRLMSQ | 1.83 ± 0.24
LISGVS | inactive
LISVCRFLAIILFRTFA | 0.365 ± 0.69
LITLAFVVSCVSYSRGSKRR | 1.26 ± 0.17
LIYRVPIDLITNSNSALRCA | -0.018 ± 0.48
LKCLLKHGFTRNG | -2.08 ± 2.7
LKDRGYQKYFNSGLIGCNAS | -0.096 ± 0.47
LKEFISCGPGCINWLHGKDW | -0.519 ± 0.37

Substance | amyloid nucleation score
LKFMSPSLSTIDRDIK | 0.156 ± 0.27
LKFSVFVKASPCTIRRS | -0.218 ± 0.5
LKGRYDIKNY | inactive
LKICLIGTNCMSNV | -0.234 ± 0.78
LKLLINGY | -0.333 ± 0.59
LKPLRKFRSNVNMR | inactive
LKSIPNCFRHFYVNTFS | -0.923 ± 0.49
LKSTEWSGRGFQ | 0.862 ± 0.19
LKSWVLYYFM | 1.03 ± 0.35
LKSYSTFVIRMNWLGDEGEL | -0.874 ± 0.8
LLALRPASNKWNAYQTLTEP | -0.462 ± 0.57
LLCARCRMSVSEFPNPGVSY | inactive
LLCLCESRVARYTWACHSWY | -0.366 ± 0.3
LLCLLYHAGGTKRGYTTWAS | -0.133 ± 1.2
LLFIAG | 0.386 ± 0.66
LLGDKLV | -0.096 ± 0.46
LLGVGCNRIDWLNGAKN | 2.04 ± 0.49
LLGVLWFKVSCGARAQLGIW | -0.197 ± 1.9
LLGYPSRLRPRYDFLPPGGM | 0.014 ± 0.99
